Test results reported in paper PMC6744903.

Target: MBP-XerD (V. cholerae) (UniProt Q9KPE9)
Experiment: pull-down

purified XafT peptide (natural protein) showed a fold XafT recovered against amylose beads alone of 3 fold.
